# Patent US20230329245A1, “COMPOSITIONS AND METHODS OF USE THEREOF” (Curie Co. Inc., priority 2020, published 2023)
# Values joined by “and” are separate entries in the source; they are usually repeats but may differ in a detail not shown here. Equal entries are not always repeated.
# Legend:
# Type in all cases: cell-based
# S. aureus ATCC 6538 = assay: MIC determination, S. aureus; conditions: CAMHB pH 7.3, 37° C., 18 to 20 hours, duplicate
# Procedure: (§1) A variant form of Streptomyces mobaraensis transglutaminase having the amino acid sequence depicted in SEQ ID NO:6 was prepared by literature methods with a hexa-his-tag to aid in purification (Javitt, et al. (2017) BMC Biotechnol. 17:23). The cells were grown in shake flasks, lysed by homogenization, and the Tgase variant (SEQ ID NO:6) was isolated from the cell debris by centrifugation. The resulting semi-purified enzyme (clarified lysate) were compared on an SDS-PAGE gel, by spectroscopy, and activity for concentration of active enzyme. The Tgase variant (SEQ ID NO:6) was further purified by affinity column on a Ni-IMAC resin prior to MIC assay. Tgase activity was measured in the examples herein using a colorimetric hydroxamate activity assay (Folk and Cole (1965) J Biol Chemistry 240(7):2951-2960). The enzyme was diluted to a working stock concentration of 2 mg/mL in CAMHB or RPMI media (bacterial or fungal media). This was then 2-fold serial diluted ten times in the appropriate media in a 96-well master plate to generate 2× starting concentrations for MIC testing.
# (§2) Strains were acquired from the American Type Culture Collection (ATCC) (Manassas, VA) and maintained as −80° C. frozen glycerol stocks: S. aureus ATCC 6538, E. coli ATCC 8739, P. aeruginosa ATCC 9027, C. albicans ATCC 10231, and A. brasiliensis ATCC 16404. […]
# E. coli ATCC 8739 = assay: Growth inhibition of E. coli culture in LB (OD600 / BacTiter-Glo); conditions: E. coli ATCC 8739; 950 μg/mL
# Procedure: (§3) For MIC determination of bacterial cultures, E. coli ATCC 8739, DH5-alpha, DH10-beta, and B. subtilis BGSC 1A1276 was grown overnight (16-18 hours) in LB broth at 37° C. The following day, the cell density of the saturated cultures was calculated using OD600 and cultures were diluted to 10^4 to 10^6 CFU/mL in sterile LB media to generate the inoculum, and 90 μL of the inoculum was combined with 10 μL of serially diluted Tgase SEQ ID NO:1 at a range of 0.0001-0.01 weight percent in the presence or absence of 0.003% lysozyme (100-fold lower than the effective concentration). Growth curves were measured by OD600 on a BioTek® Synergy Plate Reader. Optionally, the following day, a cell viability assay such as BacTiter-Glo™ (Promega®) following manufacturer's protocols) could be used to assess cell viability. A decrease in OD600 or luminescence indicated a decrease in cell viability. Results are presented as a percent reduction in cell count relative to an untreated culture. All test conditions were performed in triplicate.
# E. coli ATCC 8739 was grown overnight in LB broth at 37° C. The following day, the cell density of the saturated cultures was calculated using OD600 and cultures were diluted to 10^4 to 10^6 CFU/mL in sterile LB media to generate the inoculum, and 90 μL of the inoculum was combined with 10 μL of serially diluted Tgase SEQ ID NO:6 at a range of 0.001-0.1 weight percent in the presence or absence of chemical preservatives at concentrations above and below the calculated MIC value. A single concentration (at the MIC) of the chemical preservative and static concentrations of Tgase SEQ ID NO:6 (400 μg/mL, 0.04% w/v) are presented in Table 8 as representative examples. Growth curves were measured by OD600 on a BioTek® Synergy Plate Reader and a cell viability assay (BacTiter-Glo™, Promega®, following manufacturer's protocols) was used to assess cell viability. A decrease in OD600 or luminescence indicated a decrease in cell viability. Results are presented as a percent reduction in cell count relative to an untreated culture. […]
# [1] = test system: C. parapsilosis ATCC 22019; assay: MIC determination, C. parapsilosis; conditions: duplicate, listed as Tgase variant (SEQ ID NO: 6)
# B. subtilis BGSC 1A1276 [2] = assay: MIC determination, B. subtilis; conditions: duplicate, listed as Tgase variant (SEQ ID NO: 6)
# Procedure: as §1, §2
# C. albicans ATCC 10231 = assay: Minimum fungicidal concentration (MFC), C. albicans; conditions: no colonies recovered on SDA, duplicate, listed as Tgase variant (SEQ ID NO: 6)
# Procedure: (§4) Minimum fungicidal concentration (MFC) was determined by plating 10 microliters of liquid from each MFC test solution on the appropriate agar media for each test strain. The liquid was allowed to air dry in a biosafety cabinet, then the agar plates were incubated under the appropriate conditions: A. brasiliensis and C. albicans were grown on Sabouraud Dextrose Agar (SDA) plates. A. brasiliensis was grown at 25° C. for 5 to 7 days, while C. albicans was grown at 37° C. for 24 to 48 hours. Colony formation was then assessed. MFC is defined as the lowest concentration of the Tgase (SEQ ID NO:6) in which no colonies were recovered.
# B. subtilis BGSC 1A1276 [3] = assay: Growth reduction of B. subtilis culture (OD600 / BacTiter-Glo)
# Procedure: as §3
# Yeast or bacterial starter cultures were grown as described previously. Tgase (SEQ ID NO:6) was added to each culture at 0.001-1 weight percent. The cultures were grown overnight at 30° C.-37° C. and growth curves were measured by a BioTek® Synergy Plate Reader.
# [4] = test system: A. brasiliensis ATCC 16404; assay: Minimum fungicidal concentration (MFC), A. brasiliensis; conditions: no colonies recovered on SDA, duplicate
# Procedure: as §4
molecule,measurement,setting,value
"Tgase (SEQ ID NO: 6): variant Streptomyces mobaraensis transglutaminase (SEQ ID NO:2) with N-terminal Methionine, C-terminal peptide linker and hexa-His-Tag (protein) MDPDDRVTPPAEPLDRMPDPYRPSYGRAETVVNNYIRKWQQVYSHRDGRKQQMTEEQREWLSYGCVGVTWVNSGQYPTNRLAFASFDEDRFKNELKNGRPRSGETRAEFEGRVAKESFDEEKGFQRAREVASVMNRALENAHDESAYLDNLKKELANGNDALRNEDARSPFYSALRNTPSFKERNGGNHDPSRMKAVIYSKHFWSGQDRSSSADKRKYGDPDAFRPAPGTGLVDMSRDRNIPRSPTSPGEGFVNFDYGWFGAQTEADADKTVWTHGNHYHAPNGSLGAMHVYESKFRNWSEGYSDFDRGAYVITFIPKSWNTAPDKVKQGWPLEHHHHHH",MIC,S. aureus ATCC 6538,">1,000 μg/mL"
same,growth inhibition,E. coli ATCC 8739,85.0%
same,MIC,[1],250 µg/mL and 125 µg/mL
same,MIC,B. subtilis BGSC 1A1276 [2],80 µg/mL and 120 µg/mL
same,MFC,C. albicans ATCC 10231,31.25 µg/mL and 62.5 µg/mL
same,Fold improvement in enzyme efficacy,B. subtilis BGSC 1A1276 [3]; Tgase (SEQ ID NO: 1) alone = 1,12
same,Percent Growth Reduction,B. subtilis BGSC 1A1276 [3]; enzyme concentration 80 ug/mL,99.77%
same,MFC,[4],125 µg/mL
